Measured values published in publication PMC6746701, “A phyB-PIF1-SPA1 kinase regulatory complex promotes photomorphogenesis in Arabidopsis” (Nature Communications, 2019).

Molecular target: the molecule itself
Assay: native gel or EMSA; 5 µg holoprotein on a native 6% PAGE gel, 4 °C, 100 V, 3 h, Coomassie; dimerisation

| Protein | binding result |
| --- | --- |
| phyB-GFP ΔC holoprotein (Pichia pastoris purified) (domain or fragment, Arabidopsis, UniProt P14713 1-1092, looked up, holoprotein (chromophore bound), phytochrome B (phyB), Arabidopsis, residues 1-1092 (lacks the last 80 amino acids); source: Pichia pastoris, purified; not shown: GFP, C-terminal, kept) MVSGVGGSGGGRGGGRGGEEEPSSSHTPNNRRGGEQAQSSGTKSLRPRSNTESMSKAIQQYTVDARLHAVFEQSGESGKSFDYSQSLKTTTYGSSVPEQQITAYLSRIQRGGYIQPFGCMIAVDESSFRIIGYSENAREMLGIMPQSVPTLEKPEILAMGTDVRSLFTSSSSILLERAFVAREITLLNPVWIHSKNTGKPFYAILHRIDVGVVIDLEPARTEDPALSIAGAVQSQKLAVRAISQLQALPGGDIKLLCDTVVESVRDLTGYDRVMVYKFHEDEHGEVVAESKRDDLEPYIGLHYPATDIPQASRFLFKQNRVRMIVDCNATPVLVVQDDRLTQSMCLVGSTLRAPHGCHSQYMANMGSIASLAMAVIINGNEDDGSNVASGRSSMRLWGLVVCHHTSSRCIPFPLRYACEFLMQAFGLQLNMELQLALQMSEKRVLRTQTLLCDMLLRDSPAGIVTQSPSIMDLVKCDGAAFLYHGKYYPLGVAPSEVQIKDVVEWLLANHADSTGLSTDSLGDAGYPGAAALGDAVCGMAVAYITKRDFLFWFRSHTAKEIKWGGAKHHPEDKDDGQRMHPRSSFQAFLEVVKSRSQPWETAEMDAIHSLQLILRDSFKESEAAMNSKVVDGVVQPCRDMAGEQGIDELGAVAREMVRLIETATVPIFAVDAGGCINGWNAKIAELTGLSVEEAMGKSLVSDLIYKENEATVNKLLSRALRGDEEKNVEVKLKTFSPELQGKAVFVVVNACSSKDYLNNIVGVCFVGQDVTSQKIVMDKFINIQGDYKAIVHSPNPLIPPIFAADENTCCLEWNMAMEKLTGWSRSEVIGKMIVGEVFGSCCMLKGPDALTKFMIVLHNAIGGQDTDKFPFPFFDRNGKFVQALLTANKRVSLEGKVIGAFCFLQIPSPELQQALAVQRRQDTECFTKAKELAYICQVIKNPLSGMRFANSLLEATDLNEDQKQLLETSVSCEKQISRIVGDMDLESIEDGSFVLKREEFFLGSVINAIVSQAMFLLRDRGLQLIRDIPEEIKSIEVFGDQIRIQQLLAEFLLSIIRYAPSQEWVEIHLSQLSKQMADGFAAIRTEFRMACP | binds |
| phyB-GFP FL holoprotein (Pichia pastoris purified) (receptor, Arabidopsis, UniProt P14713 1-1172, looked up, holoprotein (chromophore bound), phytochrome B (phyB), Arabidopsis, full length; the host named for this assay is Pichia pastoris; source: Pichia pastoris, purified; not shown: GFP, C-terminal, kept) MVSGVGGSGGGRGGGRGGEEEPSSSHTPNNRRGGEQAQSSGTKSLRPRSNTESMSKAIQQYTVDARLHAVFEQSGESGKSFDYSQSLKTTTYGSSVPEQQITAYLSRIQRGGYIQPFGCMIAVDESSFRIIGYSENAREMLGIMPQSVPTLEKPEILAMGTDVRSLFTSSSSILLERAFVAREITLLNPVWIHSKNTGKPFYAILHRIDVGVVIDLEPARTEDPALSIAGAVQSQKLAVRAISQLQALPGGDIKLLCDTVVESVRDLTGYDRVMVYKFHEDEHGEVVAESKRDDLEPYIGLHYPATDIPQASRFLFKQNRVRMIVDCNATPVLVVQDDRLTQSMCLVGSTLRAPHGCHSQYMANMGSIASLAMAVIINGNEDDGSNVASGRSSMRLWGLVVCHHTSSRCIPFPLRYACEFLMQAFGLQLNMELQLALQMSEKRVLRTQTLLCDMLLRDSPAGIVTQSPSIMDLVKCDGAAFLYHGKYYPLGVAPSEVQIKDVVEWLLANHADSTGLSTDSLGDAGYPGAAALGDAVCGMAVAYITKRDFLFWFRSHTAKEIKWGGAKHHPEDKDDGQRMHPRSSFQAFLEVVKSRSQPWETAEMDAIHSLQLILRDSFKESEAAMNSKVVDGVVQPCRDMAGEQGIDELGAVAREMVRLIETATVPIFAVDAGGCINGWNAKIAELTGLSVEEAMGKSLVSDLIYKENEATVNKLLSRALRGDEEKNVEVKLKTFSPELQGKAVFVVVNACSSKDYLNNIVGVCFVGQDVTSQKIVMDKFINIQGDYKAIVHSPNPLIPPIFAADENTCCLEWNMAMEKLTGWSRSEVIGKMIVGEVFGSCCMLKGPDALTKFMIVLHNAIGGQDTDKFPFPFFDRNGKFVQALLTANKRVSLEGKVIGAFCFLQIPSPELQQALAVQRRQDTECFTKAKELAYICQVIKNPLSGMRFANSLLEATDLNEDQKQLLETSVSCEKQISRIVGDMDLESIEDGSFVLKREEFFLGSVINAIVSQAMFLLRDRGLQLIRDIPEEIKSIEVFGDQIRIQQLLAEFLLSIIRYAPSQEWVEIHLSQLSKQMADGFAAIRTEFRMACPGEGLPPELVRDMFHSSRWTSPEGLGLSVCRKILKLMNGEVQYIRESERSYFLIILELPVPRKRPLSTASGSGDMMLMMPY | binds |
